In the RNAGym collection of RNA variant scans (doi:10.7554/elife.80360):

B1: HDV Ribozyme (parent)
chain: GGCCGGCAUGGUCCCAGCCUCCUCGCUGGCGCCGGCUGGGCAACAUUCCGAGGGGACCGUCCCCUCGGUAAUGGCGAAUGGGACCCA

Variants of: B1
Test: self-cleavage, relative activity (ratio to wild type); higher = more cleavage; co-transcriptional

Point of comparison: G6A A16C, self-cleavage 0.111. Against it:
- G5C G74C — lower, 0.0978
- G5C G74U — higher, 0.161
- G5C G76A — higher, 0.415
- G5C G80C — higher, 0.17
- G5C G81C — lower, 0
- G5C G81U — higher, 0.131
- G5C G82C — lower, 0
- G5C U9C — higher, 0.312
- G5C U9G — the same, 0.111
- G5C U12A — lower, 0.0791
- G5C U12G — lower, 0.0831
- G5C U20C — lower, 0.0875
- G5C U27G — higher, 0.302
- G5C U37C — higher, 0.161
- G5C U46A — lower, 0.0639
- G5C U46C — higher, 0.26
- G5C U46G — lower, 0.0573
- G5C U60A — higher, 0.166
- G5C U60C — lower, 0
- G5C U72C — higher, 0.123
- G5U — higher, 0.469
- G5U A16C — higher, 0.383
- G5U A16U — lower, 0.0978
- G5U A42C — higher, 0.178
- G5U A43C — lower, 0
- G5U A45U — higher, 0.277
- G5U A51C — higher, 0.277
- G5U A56C — higher, 0.831
- G5U A56U — higher, 0.431
- G5U A71C — lower, 0
- G5U A71U — higher, 0.185
- G5U A77C — higher, 0.192
- G5U A77U — higher, 0.158
- G5U A83G — lower, 0.0573
- G5U C7G — lower, 0.104
- G5U C7U — lower, 0
- G5U C14U — higher, 0.612
- G5U C18A — lower, 0.0875
- G5U C22U — higher, 0.158
- G5U C30A — lower, 0.0462
- G5U C33G — higher, 0.65
- G5U C36A — higher, 0.208
- G5U C48A — higher, 0.712
- G5U C49A — higher, 0.415
- G5U C49U — higher, 0.791
- G5U C57A — higher, 0.383
- G5U C58G — higher, 0.262
- G5U C58U — higher, 0.277
- G5U C61A — higher, 0.399
- G5U C61G — higher, 0.262
- G5U C66G — higher, 0.554
- G5U C75U — lower, 0.0573
- G5U C84G — higher, 0.262
- G5U C86G — higher, 0.26
- G5U G6A — higher, 0.208
- G5U G10C — higher, 0.462
- G5U G10U — higher, 0.181
- G5U G11A — higher, 0.18
- G5U G11U — higher, 0.156
- G5U G17U — higher, 0.18
- G5U G25C — lower, 0
- G5U G25U — lower, 0
- G5U G28C — lower, 0.0554
- G5U G29U — lower, 0.0594
- G5U G34U — lower, 0.0426
- G5U G39A — higher, 0.217
- G5U G50C — higher, 0.192
- G5U G52A — higher, 0.283
- G5U G52C — higher, 0.475
- G5U G52U — higher, 0.277
- G5U G53A — higher, 0.332
- G5U G53C — higher, 0.489
- G5U G53U — higher, 0.268
- G5U G54A — higher, 0.314
- G5U G55C — higher, 0.465
- G5U G59A — higher, 0.529
- G5U G73C — higher, 0.249
- G5U G76C — higher, 0.227
- G5U G80U — lower, 0.0405
- G5U G81U — higher, 0.166
- G5U G82A — higher, 0.185
- G5U G82U — higher, 0.128
- G5U U12A — higher, 0.332
- G5U U12C — lower, 0.0831
- G5U U20C — lower, 0
- G5U U27A — higher, 0.443
- G5U U27G — higher, 0.665
- G5U U46A — higher, 0.119
- G5U U47C — higher, 0.185
- G5U U60A — higher, 0.447
- G5U U60C — higher, 0.604
- G5U U65A — higher, 0.453
- G5U U72A — higher, 0.128
- G5U U72C — higher, 0.119
- G5U U72G — higher, 0.277
- G5U U79G — lower, 0
- G6A — higher, 0.726
- G6A A8G — higher, 0.554
- G6A A16U — higher, 0.446
- G6A A42G — lower, 0
- G6A A45U — higher, 0.486
- G6A A51U — higher, 0.778
- G6A A70G — higher, 0.629
- G6A A77C — higher, 0.178
- G6A A78C — lower, 0.0615
- G6A A78G — higher, 0.554
- G6A A83C — higher, 0.291
- G6A A83G — higher, 0.302
- G6A A87U — higher, 0.602
- G6A C7A — higher, 0.185
- G6A C7G — higher, 0.208
- G6A C13U — higher, 0.145
- G6A C14U — higher, 0.87
- G6A C19A — lower, 0.0346
- G6A C24G — lower, 0.108
- G6A C26U — higher, 0.787
- G6A C33A — lower, 0.0678
- G6A C33U — higher, 0.172
- G6A C41A — higher, 0.326
- G6A C41G — lower, 0.107
- G6A C41U — higher, 0.431
- G6A C44G — the same, 0.111
- G6A C61U — higher, 0.899
- G6A C64A — higher, 0.869
- G6A C64G — higher, 0.604
- G6A C66A — higher, 0.724
- G6A C66U — higher, 0.521
- G6A C84G — higher, 0.122
- G6A C84U — higher, 0.628
- G6A C85A — higher, 0.895
- G6A C86G — higher, 0.802
- G6A C86U — higher, 0.759
- G6A G10A — higher, 0.372
- G6A G29U — lower, 0.0563
- G6A G34U — lower, 0
- G6A G35A — higher, 0.302
- G6A G38A — lower, 0.0554
- G6A G38C — lower, 0
- G6A G39A — higher, 0.277
- G6A G50U — higher, 0.708
- G6A G52A — higher, 0.831
- G6A G53A — higher, 0.874
- G6A G53U — higher, 0.786
- G6A G59A — higher, 0.776
- G6A G67C — higher, 0.643
- G6A G68A — higher, 0.704
- G6A G73C — higher, 0.312
- G6A G73U — the same, 0.111
- G6A G76A — higher, 0.744
- G6A G80C — lower, 0.0941
- G6A G81A — higher, 0.282
- G6A G81C — lower, 0.0378
- G6A G81U — lower, 0.0773
- G6A G82A — higher, 0.252
- G6A U20G — higher, 0.262
- G6A U23A — higher, 0.569
- G6A U37C — higher, 0.853
- G6A U46A — higher, 0.208
- G6A U47A — higher, 0.35
- G6A U60A — higher, 0.811
- G6A U60C — higher, 0.789
- G6A U60G — higher, 0.365
- G6A U69A — higher, 0.525
- G6A U72A — lower, 0.0875
- G6A U72G — higher, 0.246
- G6A U79A — higher, 0.322
